Test results: CN112079918A (CANVEST WUHAN BIOTECHNOLOGY CO LTD, dated 2020)

Key:
[1] = biological target: BSA (UniProt P02769 25-607); experiment: ELISA
[2] = biological target: 17SF HA (A/Guangdong/17SF003/2016) hemagglutinin protein (influenza A virus A/Guangdong/17SF003/2016 (H7N9)); experiment: ELISA, P51C05 IgG on HA protein
[3] = biological target: SH02 HA (A/Shanghai/2/2013 H7N9) hemagglutinin protein (influenza A virus A/Shanghai/2/2013 (H7N9)); experiment: ELISA, P51C05 IgG on HA protein

Sequence of BSA (P02769 25-607 limits assumed): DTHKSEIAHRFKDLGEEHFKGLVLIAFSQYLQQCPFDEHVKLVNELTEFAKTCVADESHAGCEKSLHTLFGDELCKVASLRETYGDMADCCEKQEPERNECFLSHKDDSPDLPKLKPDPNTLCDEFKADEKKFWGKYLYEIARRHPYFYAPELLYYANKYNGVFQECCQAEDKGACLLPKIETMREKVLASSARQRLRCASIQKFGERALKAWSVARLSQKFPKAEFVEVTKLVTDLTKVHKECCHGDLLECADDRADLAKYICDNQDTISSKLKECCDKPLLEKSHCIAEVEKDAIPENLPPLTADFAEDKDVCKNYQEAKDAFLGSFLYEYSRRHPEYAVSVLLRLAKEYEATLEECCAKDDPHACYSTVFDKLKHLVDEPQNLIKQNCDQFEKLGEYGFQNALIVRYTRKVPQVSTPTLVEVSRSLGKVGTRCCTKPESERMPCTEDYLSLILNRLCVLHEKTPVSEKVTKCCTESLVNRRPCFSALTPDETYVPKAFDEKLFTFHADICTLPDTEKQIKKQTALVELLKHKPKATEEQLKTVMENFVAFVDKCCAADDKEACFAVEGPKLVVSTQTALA

B1: H7N9病毒特异性识别抗体P51C05 (IgG形式) (antibody, V domains shown)
VH: EVQLVQSGSELKKPGASVKVSCKASGYTFTSYTMNWVRQAPGQGLEWMGWINTNTGNPTYAQGFTGRFVFSLDTSVSTAYLQISSLKTEDTAVYYCARGVYGMDVWGQGTTVTVSS
VL: EIVLTQSPGTLSLSPGERATFSCRASQTVSNYLAWYQQKVGQAPRLLIYDASNRATGIPARFSGSGSGTDFTLTISSLEPEDFAVYYCQQRYNWPLTFGGGTKVEIKG
With B1 the binding result [1] was “no binding”, the EC50 [2] was under 1 nM and the EC50 [3] was under 1 nM.
